Blank lines part the entries; values can stand above or below the binder they belong to.
Legend:
[1] = target: T1, human full-length CD33 (CD33^FL) on cells (human, UniProt P20138 18-364); test: flow cytometry, murine antibody, control = secondary antibody only; REH cells expressing CD33FL
T1 construct: Used for engineered REH/ML-1 sublines overexpressing CD33^FL and for endogenous CD33 on parental AML cell lines; also called Siglec-3

[2] = target: T1, human full-length CD33 (CD33^FL) on …; test: as above; remark: listed apart in the source
[3] = target: T2, purified extracellular domain of human CD33^FL with C-terminal His and Avi tags (human, UniProt P20138 18-259); test: SPR (Carterra), antibody captured on a protein A/G lawn, CD33FL antigen in solution; column 'CD33FL kD (nM), 1 µg/mL' (purified antibody)
T2 construct: also called CD33^FL ectodomain; CD33^FL antigen; not shown: C-terminal His and Avi tags
Text: (§1) FIG. 8. A kinetic profile was established from purified anti-CD33 antibodies and hybridoma supernatants by use of surface plasmon resonance technology (SPR) from the Carterra instrument. SPR is a great way to estimate the kinetic rate constants of binding interactions, of which can fit to a 1:1 Langmuir binding model to determine the on-rate (Kₒₙ) and off-rate (Koff). Both of these rate parameters allow for the calculation of the dissociation rate constant (Kd), referred to as binding affinity. The antibody clones were captured as an array on a protein A/G lawn, which was immobilized to a HC30M chip. The first kinetic experiment used a CD33^FL antigen which started at a concentration of 2 μM preceding a 4-fold titration to 2 nM. Following 10 HBSTE buffer blanks, 6 injections from low to high concentrations were subsequently flowed over the array to assess kinetics of each clone printed to the array, 1-min baseline, 5-min association, 10-min dissociation. The chip was then regenerated with 0.85% phosphoric acid pH 1.7 for a fresh reprint of the same array of clones to the protein A/G lawn, in case any lingering antigen stayed bound to the array preventing an interaction with the 2nd antigen of interest, of which CD33^ΔE2 flowed over the array of antibodies. Carterra kinetic software was used to process the data to fit the raw data to kinetic curves for each concentration of antigen injected over the array.

[4] = target: T3, purified extracellular domain of human CD33^ΔE2 with C-terminal His and Avi tags (human, UniProt P20138 18-259); test: SPR (Carterra), antibody or hybridoma supernatant captured on a protein A/G lawn, CD33ΔE2 antigen in solution
T3 construct: extracellular domain; also called CD33^ΔE2 ectodomain; not shown: C-terminal His and Avi tags
Text: as §1, with “Carterra kinetic software was used to process the data to fit the raw data to kinetic curves for each concentration of antigen injected over the array.” left out

[5] = target: T2, purified extracellular domain of human …; test: SPR (Carterra), antibody captured on a protein A/G lawn, CD33FL antigen in solution; column 'CD33FL kD (nM), 4 µg/mL' (purified antibody)
Text: as §1

[6] = target: T2, purified extracellular domain of human …; test: SPR (Biacore); column 'CD33FL Biacore kD (nM)'
[7] = target: T3, purified extracellular domain of human …; test: SPR (Carterra), antibody captured on a protein A/G lawn, CD33ΔE2 antigen in solution; column 'CD33ΔE2 kD (nM), 4 µg/mL' (purified antibody)
Text: as §1, with “Carterra kinetic software was used to process the data to fit the raw data to kinetic curves for each concentration of antigen injected over the array.” left out

[8] = target: T3, purified extracellular domain of human …; test: SPR, Biacore T100, 25 C; 1H7 captured on anti-mouse IgG, purified CD33^ΔE2 ectodomain as analyte; target CD33^ΔE2 (lacking V-set domain)
Description: (§2) FIG. 9. SPR assessment of purified extracellular domains from CD33^FL or CD33^ΔE2 binding to captured 1H7. Black lines are data and gray lines are the model fits. SPR experiments were performed at 25° C. on a Biacore T100 (Cytiva) using a running buffer of 10 mM HEPES, pH 7.4, 150 mM NaCl, 3 mM EDTA, 0.05% surfactant P20 with 0.1 mg/mL bovine serum albumin. Rabbit anti-mouse IgG was amine coupled to 2 flow cells of a Series S CM5 chip (7300 RUs). 1H7 at 0.2 μg/mL was injected at 10 μL/min over 1 flow cell of immobilized anti-mouse IgG for either 2 mins or 5 mins to capture 94 or 163 RUs of antibody for the CD33^FL and CD33^ΔE2 binding experiments, respectively. Purified ectodomains for CD33^FL and CD33^ΔE2 (engineered with C-terminal His and Avi tags) were run as concentration series at 35 μL/min over both the captured antibody and anti-mouse IgG alone (reference) surfaces. CD33^FL was injected for 10 mins and allowed to dissociate for 15 mins. CD33^ΔE2 was injected for 7 mins and dissociated for 7 mins. Ectodomain concentrations (serial 2-fold dilutions starting at 75 nM for CD33^FL and 2 μM for CD33^ΔE2) were run in duplicate, randomized, and included a buffer blank every 4th injection. The CM5 chip was regenerated with 10 mM glycine, pH 1.7 for 3 minutes at 20 μL/min and 1H7 recaptured prior to each CD33 injection. Data was double referenced and analyzed in BiaEval 2.0.4.

[9] = target: T4, artificial CD33 with deletion of exons 3 and 4, lacking the C2-set domain (CD33^ΔE3-4), on cells (human, UniProt P20138 1-364); test: flow cytometry on engineered cells
T4 construct: it probably still carries the CD33 signal peptide (aa 1-17), which is not part of the protein on cells; also called CD33 V-set construct (exon 3 and 4 deleted)

[10] = target: T3, purified extracellular domain of human …; test: SPR (Carterra), antibody captured on a protein A/G lawn, CD33ΔE2 antigen in solution; column 'CD33ΔE2 kD (nM), 1 µg/mL' (purified antibody)
Text: as §1, with “Carterra kinetic software was used to process the data to fit the raw data to kinetic curves for each concentration of antigen injected over the array.” left out

[11] = target: T2, purified extracellular domain of human …; test: SPR, Biacore T100, 25 C; 1H7 captured on anti-mouse IgG, purified CD33^FL ectodomain as analyte; target CD33^FL (full-length ectodomain)
Description: as §2

[12] = target: T1, human full-length CD33 (CD33^FL) on …; test: flow cytometry, murine antibody, control = secondary antibody only; ML-1 parental cells (endogenous CD33) and REH cells expressing CD33FL

T1 sequence (P20138 18-364): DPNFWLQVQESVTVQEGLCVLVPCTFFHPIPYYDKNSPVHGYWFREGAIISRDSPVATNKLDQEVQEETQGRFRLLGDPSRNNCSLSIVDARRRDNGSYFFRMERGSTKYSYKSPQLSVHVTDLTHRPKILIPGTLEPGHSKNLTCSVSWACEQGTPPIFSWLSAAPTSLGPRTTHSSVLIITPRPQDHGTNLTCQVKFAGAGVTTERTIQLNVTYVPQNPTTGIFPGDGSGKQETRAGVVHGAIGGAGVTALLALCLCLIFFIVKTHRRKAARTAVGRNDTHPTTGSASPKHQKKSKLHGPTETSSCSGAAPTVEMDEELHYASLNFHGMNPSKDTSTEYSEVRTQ
T3 sequence (P20138 140-259 limits assumed, stated change not applied): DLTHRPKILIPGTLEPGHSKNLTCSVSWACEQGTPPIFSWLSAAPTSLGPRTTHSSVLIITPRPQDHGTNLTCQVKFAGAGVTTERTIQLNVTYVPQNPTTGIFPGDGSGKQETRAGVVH
T2 sequence (P20138 18-259): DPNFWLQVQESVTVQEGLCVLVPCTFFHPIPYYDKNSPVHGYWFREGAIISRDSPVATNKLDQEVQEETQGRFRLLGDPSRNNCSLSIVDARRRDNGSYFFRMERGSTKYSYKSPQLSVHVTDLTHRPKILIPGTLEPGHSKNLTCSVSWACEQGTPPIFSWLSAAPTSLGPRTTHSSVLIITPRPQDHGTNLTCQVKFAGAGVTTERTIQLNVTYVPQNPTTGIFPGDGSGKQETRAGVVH
T4 sequence (P20138 other isoform, or with tags, fused parts or gaps mutant limits assumed): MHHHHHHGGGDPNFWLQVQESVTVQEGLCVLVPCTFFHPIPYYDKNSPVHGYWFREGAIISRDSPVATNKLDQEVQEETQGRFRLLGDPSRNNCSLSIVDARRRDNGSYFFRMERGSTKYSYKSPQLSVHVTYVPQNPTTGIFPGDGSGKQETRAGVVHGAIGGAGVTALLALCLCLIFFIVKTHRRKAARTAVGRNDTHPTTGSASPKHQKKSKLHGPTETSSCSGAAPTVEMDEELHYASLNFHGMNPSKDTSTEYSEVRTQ

B1: 2D5 antibody (murine CD33^PAN antibody) (antibody, V domains shown)
VH: QVQLQQSGAELVRPGASVTLSCKASGYTFTDYDMHWVKQTPVHGLEWIGAIDPETGGTAYNQNFKGKAILTVDKSSRIAYMELRSLTSEDSAVFYCTSDYDYFGVWGTGTTVTVSS
VL: DIVMTQSQKFMSTSVGDRVSVTCKASQNVGTNVVWYHKKPGQSPKGLIYSASDRYSGVPDRFTGSGSGTDFTLTINNVQSEDLAEYFCQQYNIYPYTFGGGTKLEIK
notes: Murine hybridoma antibody
binding result [1]: binds

B3: 8F5 antibody (murine CD33^V-set antibody) (antibody, V domains shown)
VH: EVKLVESGGGLVQPGGSLKLSCAASGFTFSDFYMYWVRQTPEKRLEWVAFISNAGVTTYYPDTVEGRFTISRDNAKNTLYLQMSRLMSEDTAMYYCTKSDYDGAWFPYWGQGTLVTVS
VL: DIVMSQSPSSLPVSVGEKVTLSCKSSQSLLYSRNQYNFLAWYQQRPGQSPKLLIYWASTRESGVPDRFTGSGSGTDFTLTISSVKAEDLAVYYCQQYYSYPYTFGGGTKLEIK
notes: Murine hybridoma antibody
Kd [3]: 11 nM | binding result [4]: no binding | Kd [5]: 6.1 nM | Kd [6]: 8 nM

B4: 1H7 antibody (murine CD33^PAN antibody, hybridoma clone and recombinant 1H7) (antibody, V domains shown)
VH: QVQLQQSGAELVKPGASVKISCKASGYAFSNYWMNWVKQRPGKGLEWIGQINPGDGDTNYNGKFKGKATLTADKSSSTAYMQLSSLTSEDSAVYFCAREDRDYFDYWGQGTTLTVSS
VL: DIQMTQTTSSLSASLGDRVTISCRASQDINYYLNWYQQKPDGTVKLLIYYSSRLHSGVPSRFSGSGSGTDFSLTISNLEQEDIATYFCQQDDALPYTFGGGTKLEIK
notes: Murine antibody (captured on anti-mouse IgG in the Biacore run); both are treated as one molecule; also called clone 1H7
Kd [7]: 7.6 nM | Kd [3]: 0.674 nM | Kd [8]: 280 nM | binding result [9]: no binding | Kd [10]: 5.3 nM | Kd [11]: 5.35 nM | Kd [5]: 4.2 nM

B5: 6H9 antibody (murine CD33^PAN antibody) (antibody, V domains shown)
VH: EVMLVESGGGLVKPGGSLKLSCAASGFTFSSYTMSWVRQTPEKRLEWVATISGDGGNTYYSDSVKGRFTISRDNAKNTLYLQMSSLRSEDTALYYCARQGTGTDYFDYWGQGTTLTVS
VL: DIQMTQTTSSLSASLGDRVTISCRASQDINIYLNWYQQKPDGTVKLLIYYTSRLHSGVPSRFSGSGSGTDYSLTISNLEQEDIATYFCQQGDTLPWTFGGGTKLEIK
notes: Murine hybridoma antibody
binding result [12]: binds

B7: 5D12 antibody (murine CD33^V-set antibody) (antibody, V domains shown)
VH: QVQLQQSGAEVVKPGASVKISCRASGYAFSNYWMNWVKQRPGKGLEWIGQIYPGNFNTDYNGQFKGKATLTVDKSSNTAYMQLSSLTSEDSAVYFCARFFDFGAYFTLDYWGQGTSVTVSS
VL: DIKMTQSPSSIYASLGERVTINCKASQDIKSYLSWYQQKPWKSPKTLIYYATTLADGVPSRFSGSGSGQDYSLTISSLESDDTATYYCLHHGESPWTFGEGTKLEIK
notes: Murine hybridoma antibody
Kd [3]: 2.3 nM | binding result [4]: no binding | Kd [5]: 1.1 nM | Kd [6]: 0.122 nM

The remaining lines, values ahead:

binding result [2]: no binding
B2: 13E11 (antibody, V domains shown)
VH: KVQLQQSGAELVKPGASVKLSCKASGYTFTDYTLHWLKQRSGQGLEWIGWFYPTSGSINYNERFKDKATLTADKSSSTVYMELSRLTSVDSAVYFCARHKFGFDYWGQGTTLTVSS
VL: DIVLTQSPVSLAVSLGQRATISCKASHGVEYAGAHYMNWYQQKPGQPPKLLIYAASNLGSGIPPRFSGSGSGTDFTLNIHPVEEEDSATYYCQQSNEDPRTFGGGTKLEIK
notes: also called 13E11 antibody; murine CD33^C2-set-specific antibody, clone 13E11

binding result [12]: binds
B6: 9G2 antibody (murine CD33^PAN antibody) (antibody, V domains shown)
VH: EVKLVESEGGLVQPGSSMKLSCTASGFTFSDYYMSWVRQVPEKGLEWVASINYDGGSTYYLDSLKSRFIISRDNTKNILYLQMSSLKSEDTATYYCARDRGDGDYFDYWGQGTTLTVSS
VL: DIQMTQTTSSLSASLGDRVTISCKTSQDIYNYLNWYQQKPDGTVKLLIYYTSRLHSGVPSRFSGGGSGTDYSLTISNLEQEDIATYFCQQGDTLPWTFGGGTKLEIK
notes: Murine hybridoma antibody

— patent US20230190810A1 (FRED HUTCHINSON CANCER CENTER, published 2023)
